Test results reported in paper PMC9867676.

What was measured:
[1] = tested on: T1, RinA (Staphylococcus aureus NCTC8325 (phage phi11)), ORF:ad3d0fcb; experiment: competition; details: 50 mM Tris-HCl, 300 mM NaCl, pH 8.0 ([…], room temperature
T1 sequence: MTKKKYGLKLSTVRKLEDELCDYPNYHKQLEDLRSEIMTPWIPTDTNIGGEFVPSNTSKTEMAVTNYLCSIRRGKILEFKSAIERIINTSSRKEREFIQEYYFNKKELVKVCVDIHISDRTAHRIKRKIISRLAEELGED

[2] = tested on: T1, RinA (Staphylococcus aureus NCTC8325 (phage phi11)), ORF:ad3d0fcb; experiment: EMSA; details: 50 mM Tris-HCl, 300 mM NaCl, pH 8.0 ([…], room temperature

Sequence | binding [1] | binding [2]
CTAAACCAAATGCTAACCCAGAAATACAATCACTGTGTCTAATGAATAATTTGTTTTATAAACACTTTTTTGTTTACTTCTCATTTTTAATTAGTTATAATTAACTAAATAATAGAGCATTAAATATATTTAATAAAACTTATTTAATGCAAAATTATGACTAACATATCTATAATAAATAAAGATTAGATATCAATATATTATCGGGCAAATGTATCGAGCAAGATGCATCAAATAGGGAGGTTTTAAACATGGC (double strand) [sarA promoter fragment (unlabeled)] | binds | –
CTAAACCAAATGCTAACCCAGAAATACAATCACTGTGTCTAATGAATAATTTGTTTTATAAACACTTTTTTGTTTACTTCTCATTTTTAATTAGTTATAATTAACTAAATAATAGAGCATTAAATATATTTAATAAAACTTATTTAATGCAAAATTATGACTAACATATCTATAATAAATAAAGATTAGATATCAATATATTATCGGGCAAATGTATCGAGCAAGATGCATCAAATAGGGAGGTTTTAAACATGGC (double strand) [sarA promoter fragment (FAM)] | – | binds
